Source: the nanobody polyreactivity screen of Harvey et al. (2022)

Experiment: yeast display, Sf9 membrane polyspecificity reagent, FACS + sequencing; frameworks hold sequencing errors
In short: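 In a synthetic yeast display library (Saccharomyces cerevisiae BJ5465), nanobody expression was induced with galactose for 36–48 hours. FACS gates were set low and high (top ~1%) using anti-HA fluorescence for expression and streptavidin fluorescence for binding of the Sf9 membrane reagent. Each polyreactivity label is drawn from the gate of origin.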

Sequence	polyreactivity (PSR sort gate)
QVQLVESGGGLVQAGGSLRLSCAASGNTYSYNAMGWYRQAPGKEREFVASISRRGGRTNYADSVKGRFTISRDNAKYTVYLQMNSLKPEDTAVYYCAATTVPLGDYWGQGTQVTVST	high polyreactivity
QVQLVESGGGLVQAGGSLRLSCAASGNTYTSYAMGWYRQAPGKDRELVAAISASGSSTYYADSVKGRFTISRDNAKNTVYLQMNSLKPEDTAVFYCARQWYWRPGYYMGQGYEYWGQGTQVTVSS	low polyreactivity
QVQLVESGGGLVQAGGSLRLSCAASGPIFATNAMGWYRQAPGKERELVASISSGGGSTYYADSVKGRFTISRDNAKNTVYLQMNSLKPEDTAVYYCAADYYTGYVWEDYYWGQGTQVTVSS	low polyreactivity
QVQLVESGGGLVQAGGSLRLSCAASGPIFPAYAMGWYRQAPGKERELVASIRRGGITYADSVKGRFTISRDNAKNTVYLQMNSLKPEDTAVYYCNADYRGWGYHMDYWGQGTQVTVSS	low polyreactivity
QVQLVESGGGLVQAGGSLRLSCAASGPIIGQYAMVWYIQAPGKERELVAAITYSGGRTYYADSVKGRFTISRDNAKNTVYLQMNSLKPEDTAVYYCAARGRASFERRGGYYYWGQVTQVTVSS	high polyreactivity
QVQLVESGGGLVQAGGSLRLSCAASGPTFDYNAMGCYRPAPGKERELVAAIRFGGGSTYYADSVKGRFTISRDNAKNTVYFQINSLKPEDTAVYYCNASPLWIGWVIVPVGSSHYDYWGQGTQVTVSS	low polyreactivity
QVQLVESGGGLVQAGGSLRLSCAASGPTFKRYAMGWYRQAPGKERELVAAITGTGAITYYADSVKGRFTISRDNAKNTVYLQMNSLKPEDTAVYYCAALGYYRYKYQASSNGFDYWGQGTQVTVSS	high polyreactivity
QVQLVESGGGLVQAGGSLRLSCAASGPTFLVNAMGWYRQAPGKERELVATINWNAGSTYYADSVKGRFTISRDYAKNTVYLQMNSLKPEDTAVYYCAAPYEQAPTTDVSSLIPLHDYWGQGTQVTVSS	low polyreactivity
QVQLVESGGGLVQAGGSLRLSCAASGPTFRRYGMGWYRQAPGKERELVDAITTRGGSTYYADSVKGRFTISRDNAKNTVYLQMNSLKPEDTAVYYCAAPRKYFYSSATGNYWGQGTQVTVSS	high polyreactivity
QVQLVESGGGLVQAGGSLRLSCAASGPTFYYYAMGWYRQEPGKERELVAAIRVRGGSTYYADSVKGRFTISRDNAKNTVYLQMNSLKPEDTAVYYCAADHTFYGVHKYDYWGQGTQVTVSS	low polyreactivity
QVQLVESGGGLVQAGGSLRLSCAASGQIFHSYAMGWSRQAPGKERELVAAISRGGGSTYYADSVKGRFTISRDNAKNTVYLQMNSLKPEDTAVYYCARENLTRYDYWGQGTQVTVSS	high polyreactivity
QVQLVESGGGLVQAGGSLRLSCAASGQIFYRYAMGWDRQAPGKERELVAAISSGGSTYYADSVKGRFTISRDNAKNTVYLQMNSLKPEDTAVYYCNTGYWYVSLGSYDYYGEYDYWGQGTQVTVSS	high polyreactivity
QVQLVESGGGLVQAGGSLRLSCAASGRAFKRYAMGWYRQAPGKERELVAAITRSGGSTYYADSVTGRFTISRDKAKNTVYLQMNSLKPEDTAVYYCATRSYNNELEYWGQGTQVTVSS	high polyreactivity
QVQLVESGGGLVQAGGSLRLSCAASGRICTRNAMGWYRQAPGKERELVAAISWRGGSTYYADSVKGRFTISRDNAKNTVYLQMNSLKPEDTAVYYCNAYFLSQYQSAYRDDYWGQGTQVTVSS	high polyreactivity
QVQLVESGGGLVQAGGSLRLSCAASGRIFAANTMGWYRQAPGKEREFVAVIRGRGGSTYYADSVKGRFTISRDNAKNTVYLQMNSLKPEDTAVYYCAAYYKPYRERLYGYWGQGTQVTVSS	high polyreactivity
QVQLVESGGGLVQAGGSLRLSCAASGRIFAAYAMGWYRQAPGKERELVAAITRRGSTYYADSVKGRFTISRDNDKKTVYFQMNSLKPEDTAVYYCNKVPLFQYSTAWYDYWGQGTQVTVSS	high polyreactivity
QVQLVESGGGLVQAGGSLRLSCAASGRIFAAYAMGWYRQAPGKERELVAAITWDGDSTYYADSVKGRFTISRDNAKNTVYLQMNSLKPEDTAVYYCAAYWSTWYDWGQGTQVTVSS	high polyreactivity
